For 1 substance, stoichiometry N results are on record in paper PMC3718333.

The assay concerns the target recombinant MHJ_0125 (polyhistidine fusion of the M42 glutamyl aminopeptidase MHJ_0125 of Mycoplasma hyopneumoniae) (Mycoplasma hyopneumoniae (strain J)). The assay can be described thus: SEC; 10 µg purified rMHJ_0125 on Superdex 200 (3.2 x 300 mm), 20 mM Tris-HCl pH 8.0, 50 µl/min; markers blue dextran, apoferritin, myoglobin. (SEC sorts molecules by how far they enter the pores of the column.)

A word on the stoichiometry N: it is the number of molecules, sites or subunits per partner or assembly. In the case of “recombinant MHJ_0125 (polyhistidine fusion of the M42 glutamyl aminopeptidase MHJ_0125 of Mycoplasma hyopneumoniae) (enzyme)”, the stoichiometry N was determined as 12.
